According to publication PMC9912922, “The LH–DH module of bacterial replicative helicases is the common binding site for DciA and other helicase loaders” (Acta Crystallographica. Section D, Structural Biology, 2023):

B1: EcDnaC, helicase loader DnaC from Escherichia coli (natural protein)
chain: MKNVGDLMQRLQKMMPAHIKPAFKTGEELLAWQKEQGAIRSAALERENRAMKMQRTFNRSGIRPLHQNCSFENYRVECEGQMNALSKARQYVEEFDGNIASFIFSGKPGTGKNHLAAAICNELLLRGKSVLIITVADIMSAMKDTFRNSGTSEEQLLNDLSNVDLLVIDEIGVQTESKYEKVIINQIVDRRSSSKRPTGMLTNSNMEEMTKLLGERVMDRMRLGNSLWVIFNWDSYRSRVTGKEY
notes: DnaC helicase loader, Escherichia coli; source: overexpressed in E. coli, purified as described in Marsin et al. (2021)
B2: VcDnaB, replicative helicase DnaB from Vibrio cholerae (enzyme)
chain: MADPRTDNRNRKIPDAQVDAIKVPPHSLEAEQSVIGGLLLDNERWDTVSEHVMTQDFYSRPHRLIFDGVKSILEAGKPLDLITLSEYLEQREQLEDVGGFAYLADLAKNTPSAANINAYAEIVAERALVRNLIGVANEIADAGYDPQGRNAEDLLDLAESKVFAIAEARTSENEGPKNVDSILERTLERIELLYKTPQDGVTGVNTGFTDLNKKTAGLQGSDLIIVAARPSMGKTTFAMNLCENAAMEQDKPVLIFSLEMPAEQIMMRMLASLSRVDQTKIRTGQLDDEDWARISSTMGILMEKKNMYIDDSSGLTPTEVRSRARRIAREHGGLSLIMVDYLQLMRVPALTDNRTLEIAEISRSLKALAKELNVPVVALSQLNRSLEQRADKRPVNSDLRESGSIEQDADLIMFIYRDEVYHPDSPLKGTAEIIIGKQRNGPIGSVRLTFQGHYSRFDNYAGPAFDDE
notes: DnaB replicative helicase, Vibrio cholerae; seen as full-length protein without proteolysis on SDS-PAGE of the crystals; NTD 22-175 and CTD 200-461 of PDB 6t66 were the search models

How the values were obtained:
[1] = target: B2; test: intrinsic fluorescence variation along a thermal ramp (Tycho NT.6 nano-DSF); 20 µM of each protein in 50 mM HEPES pH 7.5, 150 mM NaCl, 1 mM ATP; 350/330 nm ratio, 35 to 95°C, compared with the ratio predicted in the absence of interaction; three to five replicates; conditions: both partners purified
[2] = target: the molecule itself; test: crystal structure; VcDnaB (0.115 mM monomer) pre-incubated with 2 mM ADP and 5 mM MgCl2, VcDciA added to 0.138 mM; crystals at 18°C in 0.1 M sodium acetate pH 4.8-5.6, 0.7-0.9 M potassium/sodium tartrate; 2.9 Å

| Binder | binding result [1] | binding result [2] |
| --- | --- | --- |
| B1 | binds |  |
| B2 |  | binds |
